In general, stoichiometry N refers to a count of units in the complex or per binding partner.

Consider three substances from paper PMC7642778.

The target of assay [1] is monothiol glutaredoxin-1 from Clostridium oremlandii (C16S) (Clostridium oremlandii (strain OhILAs)). Briefly: crystal structure; m-cGrx1–cMsrA complex (β3-swap), formed by incubation with 5 mM methionine sulfoxide at 4°C for 2 h and purified on Superdex 75; crystals from 0.1 M sodium phosphate/citric acid pH 4.2, 0.4 M potassium phosphate (dibasic)/1.6 M sodium phosphate (monobasic), 20°C.

The target is the same in assay [2]. In words: crystal structure; m-cGrx1 alone (β1-swap), formed in the presence of hydrogen peroxide; crystals from 0.1 M HEPES pH 7.5, 20% PEG 400, 8% PEG 8000, 20°C.
The target in assay [3] is dithiol glutaredoxin-1 from Clostridium oremlandii (strain OhILAs) (Clostridium oremlandii (strain OhILAs)). Briefly: crystal structure; d-cGrx1 alone; crystals from 0.1 M sodium phosphate/citric acid pH 4.2, 0.2 M lithium sulfate, 20% PEG 1000, 20°C.

As for “monothiol glutaredoxin-1 from Clostridium oremlandii (C16S) (enzyme)”, the stoichiometry N in assay [1] and in assay [2] was 4 throughout. On to “methionine sulfoxide reductase A from Clostridium oremlandii (enzyme)”, for which the stoichiometry N (cGrx1 per cMsrA (four cGrx1 : two cMsrA)) in assay [1] was 2. For “dithiol glutaredoxin-1 from Clostridium oremlandii (strain OhILAs) (enzyme)”, in assay [3], the stoichiometry N came out at 2.
